Reference: patent publication US20080009025A1, “PROTEIN KINASE REGULATION” (priority 1999, published 2008)

Assays:
PDK1-wt = molecular target: T1, PDK1-wt (Homo sapiens, UniProt O15530); experiment: Phosphorylation of AGC kinase substrates by PDK1 (32P, PhosphoImager); type: biochemical
T1 construct: made in house; host or cells: human embryonic kidney 293 cells
T1 sequence (O15530 1-556): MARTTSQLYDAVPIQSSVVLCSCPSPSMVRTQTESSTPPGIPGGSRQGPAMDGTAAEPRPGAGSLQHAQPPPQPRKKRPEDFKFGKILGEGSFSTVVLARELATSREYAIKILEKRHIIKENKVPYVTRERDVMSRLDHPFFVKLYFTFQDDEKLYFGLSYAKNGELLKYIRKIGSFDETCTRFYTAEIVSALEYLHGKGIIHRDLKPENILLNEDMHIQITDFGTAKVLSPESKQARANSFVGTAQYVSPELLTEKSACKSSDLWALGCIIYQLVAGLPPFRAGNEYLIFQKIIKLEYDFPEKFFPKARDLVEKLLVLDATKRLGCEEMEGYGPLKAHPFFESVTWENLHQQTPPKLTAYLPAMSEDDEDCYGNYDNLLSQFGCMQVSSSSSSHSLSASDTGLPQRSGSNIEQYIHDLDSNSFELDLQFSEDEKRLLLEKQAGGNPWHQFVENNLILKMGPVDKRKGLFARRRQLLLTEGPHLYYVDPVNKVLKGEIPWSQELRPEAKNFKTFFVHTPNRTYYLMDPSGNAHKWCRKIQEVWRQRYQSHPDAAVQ
Procedure: (§1) Phosphorylation of AGC kinase substrates by PDK1. The phosphorylation of PDK1 substrates was performed in a final volume of 20 μl in a buffer containing 50 mM Tris-HCl pH 7.5, 0.1% (by vol) 2-mercaptoethanol, 10 mM magnesium chloride, 100 μM [γ-^32P]ATP (˜1000 c.p.m./pmol), 0.5 μM microcystin-LR, 0.6 μM AGC kinase substrate and 0.6 to 30 nM wild type PDK1 or the indicated mutant of PDK1.
(§2) Relative phosphorylation of PDK1 substrates. PDK1 substrates were phosphorylated in vitro, subjected to SDS-PAGE, and radioactivity associated with the bands measured using a Phospho-Imager and known amounts of ATP as standard. The phosphorylation rate of PKB[S473D] in the presence of PtdIns (3,4,5)P3 was 2.6 mol/mol PDK1/min and was taken as the relative value of 100. Average values from a representative experiment performed in duplicates are shown.

PDK1-L155E = molecular target: T2, PDK1-L155E (Homo sapiens, UniProt O15530, L155E); experiment: as above; type: biochemical; conditions: PKB[S473D] rate by PDK1-wt = 100
T2 construct: made in house; host or cells: human embryonic kidney 293 cells
T2 sequence (O15530 1-556 L155E): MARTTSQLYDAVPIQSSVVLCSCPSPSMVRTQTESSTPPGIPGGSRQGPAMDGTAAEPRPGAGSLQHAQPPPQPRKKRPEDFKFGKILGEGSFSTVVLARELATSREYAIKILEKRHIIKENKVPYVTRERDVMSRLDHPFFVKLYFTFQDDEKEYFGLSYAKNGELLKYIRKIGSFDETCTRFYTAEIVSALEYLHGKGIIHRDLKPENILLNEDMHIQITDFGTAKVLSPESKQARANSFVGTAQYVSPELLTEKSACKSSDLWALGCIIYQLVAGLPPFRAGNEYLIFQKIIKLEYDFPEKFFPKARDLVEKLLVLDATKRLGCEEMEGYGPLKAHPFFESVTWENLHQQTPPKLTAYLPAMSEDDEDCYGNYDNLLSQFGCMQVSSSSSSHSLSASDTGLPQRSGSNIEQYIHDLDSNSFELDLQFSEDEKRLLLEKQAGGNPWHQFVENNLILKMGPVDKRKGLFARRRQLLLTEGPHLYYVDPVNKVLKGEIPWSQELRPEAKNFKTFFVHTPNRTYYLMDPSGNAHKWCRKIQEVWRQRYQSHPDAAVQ
Procedure: as §1, §2

PDK1 = molecular target: T3, PDK1 (Homo sapiens, UniProt O15530); experiment: Glutathione-Sepharose pull-down of PDK1 with S6K1 or SGK1 from 293 cells; type: binding; conditions: GST-SGK1 forms; wild type Myc-PDK1
T3 construct: Full length PDK1 (residues 1-556); made in house; host or cells: 293 cells
T3 sequence (O15530 1-556): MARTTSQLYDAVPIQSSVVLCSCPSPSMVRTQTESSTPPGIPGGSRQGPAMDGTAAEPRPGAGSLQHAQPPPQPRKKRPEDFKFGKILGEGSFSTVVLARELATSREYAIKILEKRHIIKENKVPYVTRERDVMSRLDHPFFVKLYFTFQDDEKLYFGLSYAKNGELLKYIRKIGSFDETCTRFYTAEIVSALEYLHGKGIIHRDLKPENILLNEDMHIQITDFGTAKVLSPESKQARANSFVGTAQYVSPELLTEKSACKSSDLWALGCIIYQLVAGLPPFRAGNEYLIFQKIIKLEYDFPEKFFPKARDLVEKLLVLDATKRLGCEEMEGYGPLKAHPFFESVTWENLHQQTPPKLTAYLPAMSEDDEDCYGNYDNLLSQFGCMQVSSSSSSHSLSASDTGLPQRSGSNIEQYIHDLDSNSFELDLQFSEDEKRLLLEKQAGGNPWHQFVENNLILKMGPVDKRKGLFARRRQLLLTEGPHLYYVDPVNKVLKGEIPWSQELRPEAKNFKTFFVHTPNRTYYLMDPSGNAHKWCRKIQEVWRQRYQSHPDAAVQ
Procedure: FIG. 21. Interaction of S6K1 and SGK1 with PDK1. 293 cells were transiently transfected with DNA constructs expressing GST, GST-PDK1 wt or PDK1 L155E together with constructs expressing either wild type or the indicated mutants or truncations of HA tagged S6K1 (A) or wild type GST-ΔN-SGK1 or 422D mutant. 36 h post transfection the cells were lysed and GST fusion protein was purified by affinity chromatography on glutathione-Sepharose beads. Aliquots were electrophoresed on a 10% SDS-polyacrylamide gel, stained with Coomassie Blue, or immunoblotted using an anti-FLAG antibody to detect FLAG-S6K1 and anti-Myc antibody to detect Myc-PDK1. To establish that the wild type and mutant proteins were expressed at similar levels, […] of total lysate was electrophoresed on a 10% SDS-polyacrylamide gel and immunoblotted using the indicated antibodies. Duplicates of each condition are shown. Similar results were obtained in two different experiments.
Binding of PDK1 to SGK1 and S6K1. For the data presented in FIG. 22, 293 cells were cotransfected with 10 μg of the wild type or mutant PDK1 plasmid and 10 μg of either the wild type or mutant S6K1 or SGK1. […] The gels were either stained with Coomassie blue, or analysed by immunoblotting with either anti-Flag or anti-Myc antibodies (described below).

phosphorylated at a lower rate than SGK1[T422D] (PDK1-wt): 10 fold
Relative phosphorylation of PDK1 substrates PDK1-wt +PIFtide (PDK1-wt; with PIFtide, PKB[S473D] rate with PtdIns(3,4,5)P3 = 100): 3.8
Relative phosphorylation of PDK1 substrates PDK1-wt — (PDK1-wt; without PIFtide, PKB[S473D] rate with PtdIns(3,4,5)P3 = 100): 8
Relative phosphorylation of PDK1 substrates PDK1-L155E +PIFtide (PDK1-L155E; with PIFtide): 2.4
Relative phosphorylation of PDK1 substrates PDK1-L155E — (PDK1-L155E; without PIFtide): 3.3
interaction with Myc-PDK1 (PDK1): did not interact
B1: DN-SGK: SGK1 lacking the N-terminal 60 amino acids (protein)
chain: SQPQEPELMNANPSPPPSPSQQINLGPSSNPHAKPSDFHFLKVIGKGSFGKVLLARHKAEEVFYAVKVLQKKAILKKKEEKHIMSERNVLLKNVKHPFLVGLHFSFQTADKLYFVLDYINGGELFYHLQRERCFLEPRARFYAAEIASALGYLHSLNIVYRDLKPENILLDSQGHIVLTDFGLCKENIEHNSTTSTFCGTPEYLAPEVLHKQPYDRTVDWWCLGAVLYEMLYGLPPFYSRNTAEMYDNILNKPLQLKPNITNSARHLLEGLLQKDRTKRLGAKDDFMEIKSHVFFSLINWDDLINKKITPPFNPNVSGPNDLRHFDPEFTEEPVPNSIGKSPDSVLVTASVKEAAEAFLGFSYAPPTDSFL
modifications: left off: a dimerising Fc or GST
notes: SGK1 lacking the N-terminal 60 amino acids
